Source: the supplement of paper PMC9112550, “Optimization of the antimicrobial peptide Bac7 by deep mutational scanning” (BMC Biology, 2022)

Tested on: Escherichia coli TOP10
Assay: shrunken log2 fold change of peptide-encoding DNA abundance (4.5 h post-induction vs induction); higher = less antimicrobial activity (less host growth inhibition)
Conditions: time post-induction: 4.5 h; library: site-saturation at positions 5, 18, 19, 20
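Further: peptides expressed intracellularly from a pBAD plasmid library in pooled LB shake-flask culture, induced with 0.3% L-arabinose, DNA abundance read by NGS, three biological replicates, DESeq2 with apeglm shrinkage.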

Sequence	shrunken log2 fold change
RRIRARPPRLPRPRPRPQAAPRP	1.14
RRIRVRPPRLPRPRPRPNPDPRP	-0.0161
RRIRPRPPRLPRPRPRPEAVPRP	0.216
RRIRTRPPRLPRPRPRPVVEPRP	0.0529
RRIRVRPPRLPRPRPRPTRIPRP	0.108
RRIRYRPPRLPRPRPRPDMWPRP	-1.03
RRIRNRPPRLPRPRPRPEAWPRP	-0.0397
RRIRERPPRLPRPRPRPNCSPRP	-0.202
RRIRERPPRLPRPRPRPWEVPRP	-0.17
RRIRPRPPRLPRPRPRPNITPRP	-0.293
RRIRRRPPRLPRPRPRPDFCPRP	-0.0293
RRIRVRPPRLPRPRPRPLRFPRP	0.571
RRIRHRPPRLPRPRPRPCVCPRP	0.0978
RRIRTRPPRLPRPRPRPVFHPRP	-0.136
RRIRHRPPRLPRPRPRPDNAPRP	-0.34
RRIRYRPPRLPRPRPRPIDPPRP	-0.00088
RRIRWRPPRLPRPRPRPHWKPRP	-0.018
RRIRSRPPRLPRPRPRPSLYPRP	-0.432
RRIRWRPPRLPRPRPRPVAHPRP	0.00472
RRIRKRPPRLPRPRPRPHIAPRP	-0.415
RRIRIRPPRLPRPRPRPLAAPRP	0.255
RRIRWRPPRLPRPRPRPNCSPRP	-0.162
RRIRPRPPRLPRPRPRPLFIPRP	-0.459

Sequence	shrunken log2 fold change
RRIRTRPPRLPRPRPRPFPFPRP	-0.406
RRIRERPPRLPRPRPRPVHQPRP	0.107
RRIRERPPRLPRPRPRPEKHPRP	-0.13
RRIRLRPPRLPRPRPRPLAWPRP	0.32
RRIRKRPPRLPRPRPRPQPFPRP	0.18
RRIRTRPPRLPRPRPRPDYKPRP	-0.303
RRIRMRPPRLPRPRPRPRTKPRP	1.21
RRIRHRPPRLPRPRPRPYPLPRP	-0.641
RRIRWRPPRLPRPRPRPFDSPRP	-0.124
RRIRPRPPRLPRPRPRPPCGPRP	0.254
RRIRQRPPRLPRPRPRPPGIPRP	-0.0579
RRIRPRPPRLPRPRPRPQCDPRP	-0.254
RRIRSRPPRLPRPRPRPFIVPRP	-0.477
RRIRIRPPRLPRPRPRPMNVPRP	-0.122
RRIRHRPPRLPRPRPRPNYMPRP	-0.0657
RRIRVRPPRLPRPRPRPVQMPRP	-0.0712
RRIRYRPPRLPRPRPRPPFTPRP	-0.244
RRIRERPPRLPRPRPRPRFQPRP	0.2
RRIRPRPPRLPRPRPRPWWFPRP	-0.133
RRIRPRPPRLPRPRPRPSIAPRP	-0.131
RRIRVRPPRLPRPRPRPTAKPRP	0.0848
RRIRARPPRLPRPRPRPHCPPRP	-0.0475
RRIRDRPPRLPRPRPRPHYDPRP	0.0428

Sequence	shrunken log2 fold change
RRIRERPPRLPRPRPRPQPNPRP	-0.084
RRIRLRPPRLPRPRPRPHEWPRP	-0.0141
RRIRFRPPRLPRPRPRPERAPRP	0.611
RRIRVRPPRLPRPRPRPRHLPRP	-0.222
RRIRYRPPRLPRPRPRPWYAPRP	-1.43
RRIRKRPPRLPRPRPRPKLNPRP	0.218
RRIRGRPPRLPRPRPRPMHAPRP	1.66
RRIRVRPPRLPRPRPRPCRQPRP	-0.0134
RRIRDRPPRLPRPRPRPVYIPRP	-0.497
RRIRSRPPRLPRPRPRPEQPPRP	0.591
RRIRQRPPRLPRPRPRPSSWPRP	-0.0176
RRIRSRPPRLPRPRPRPCQQPRP	-0.147
RRIRLRPPRLPRPRPRPRYHPRP	-0.274
RRIRPRPPRLPRPRPRPEMQPRP	1.05
RRIRKRPPRLPRPRPRPSRMPRP	0.317
RRIRVRPPRLPRPRPRPLKAPRP	0.157
RRIRDRPPRLPRPRPRPYTAPRP	0.0362
RRIRMRPPRLPRPRPRPETAPRP	4.06
RRIRPRPPRLPRPRPRPLPMPRP	0.53
RRIRDRPPRLPRPRPRPCAFPRP	0.822
RRIRQRPPRLPRPRPRPALRPRP	-0.00883
RRIRHRPPRLPRPRPRPEWNPRP	-0.294
RRIRRRPPRLPRPRPRPHLKPRP	-0.0915

Sequence	shrunken log2 fold change
RRIRIRPPRLPRPRPRPRINPRP	-0.482
RRIRDRPPRLPRPRPRPLSLPRP	0.0554
RRIRNRPPRLPRPRPRPNDEPRP	-0.227
RRIRQRPPRLPRPRPRPSWYPRP	-0.0733
RRIRRRPPRLPRPRPRPNSKPRP	-0.00313
RRIRKRPPRLPRPRPRPCFIPRP	-0.13
RRIRERPPRLPRPRPRPQFWPRP	0.172
RRIRERPPRLPRPRPRPFYVPRP	-0.189
RRIRKRPPRLPRPRPRPTFKPRP	0.0344
RRIRVRPPRLPRPRPRPWNNPRP	-0.204
RRIRCRPPRLPRPRPRPSEMPRP	-0.286
RRIRVRPPRLPRPRPRPFQWPRP	-0.126
RRIRCRPPRLPRPRPRPCWGPRP	-0.195
RRIRARPPRLPRPRPRPESGPRP	0.793
RRIRVRPPRLPRPRPRPGSDPRP	-0.00601
RRIRYRPPRLPRPRPRPQGWPRP	0.031
RRIRWRPPRLPRPRPRPHAVPRP	0.172
RRIRRRPPRLPRPRPRPKRGPRP	0.44
RRIRDRPPRLPRPRPRPWTPPRP	-0.0489
RRIRSRPPRLPRPRPRPMSWPRP	0.0314
RRIRLRPPRLPRPRPRPYALPRP	-0.141
RRIRYRPPRLPRPRPRPQASPRP	-0.0259
